Measured values taken from patent US20250352611A1, “METHODS FOR TREATING CATARACTS USING POLYPEPTIDES” (REJUKON BIOPHARM INC., priority 2022, published 2025).

Columns and labels:
[1] = target: T1, G3BP1 (Mus musculus, UniProt P97855); assay: G3BP1 turbidity assay (OD395 nm); assay type: biochemical; conditions: G3BP1 30 μM, ratio range 0.75 to 25, room temperature, 10 minutes
T1 construct: Genes of full-length mouse G3BP1, G3BP1-eGFP; thrombin protease cleavage site (C); His6 (C); made in house; host or cells: Escherichia coli rosetta (DE3)
Protocol: The turbidity of G3BP1 (30 μM) in the presence of various concentrations of Champ-E, Champ-D, Champ-K, or Champ-Q was measured at a wavelength of 395 nm. Briefly, G3BP1 protein ([…]) and polypeptides Champ-E (RJK001), Champ-D (RJK002), Champ-K (RJK012) and Champ-Q (RJK005) were mixed well in a ratio range of 0.75 to 25 at room temperature for 10 minutes prior to turbidity assays. Absorbance at 395 nm (OD395 nm) was monitored at room temperature using Nanodrop ONE (Thermo Fisher Scientific, Inc.). […] The turbidity level reflects the degree of phase separation.
Briefly, the G3BP1 protein and the above-mentioned peptides were mixed at room temperature for 10 minutes prior to turbidity assays. 30 μM G3BP1 and peptide were mixed well in a ratio range of 0.75 to 25 before test. Absorbance at 395 nm (OD395 nm) was monitored at room temperature using Nanodrop ONE (Thermo Fisher Scientific, Inc.).
We followed the Turbidity Assays experiment as previously reported. Briefly, G3BP1 turbidity analysis were at room temperature and γD-crystallin protein was at 4° C. Proteins and Champ-E(RJK001), Champ-K, Champ-D or mutants are mixed at room temperature for 10 minutes prior to turbidity assays. 20 μM G3BP1 and 50 mg/ml(2.5 mM) γD-crystallin and peptide were mixed well in a ratio range of 0.75 to 25 before test. Absorbance at 395 nm (OD395 nm) was monitored at room temperature using Nanodrop ONE (Thermo Fisher Scientific, Inc.).

[2] = system: crystallin aggregation from cataract patients; assay: Dissolution of crystallin aggregation in lens lysates from cataract patients; parameters: species or system human
Protocol: 30-50 ml lens lysates after phacoemulsification was collected from cataract patients with different disease progressions. Lanosterol was used as a benchmark medicament (see, Zhao, Ling, et al. “Lanosterol reverses protein aggregation in cataracts.” Nature 523. 7562 (2015): 607-611). […] Moreover, the concentration of the polypeptides provided herein (e.g., RJK001) was as less as 1/100 of the concentration of Lanosterol required to achieve the same dissolving effect.
30-50 ml Phacoemulsification of eye lens was collected from cataract patients with different disease progression. Let Phacoemulsification pass the 3KD protein concentration tube, and centrifuge at 4000 g for 20 minutes. centrifuge at 14000 g for 5 minutes after repeating the previous step to get the concentrate. Concentrate phacoemulsification to 200-300 ul every lens. Add 8 ul phacoemulsification concentrate in the following groups: 1, 8 ul crystalline concentrate; 2, 8 ul 1 mM lanosterol; 3, 8 ul 1 mM short peptide RJK001; 4, 8 ul protein solubilization buffer. Use a 20 ul pipette tip to mix them well, then stand still at RT for 20 min.

[3] = target: T2, G3BP1-GFP protein (Mus musculus, UniProt P97855); assay: G3BP1-GFP phase separated droplet dissolution, confocal laser microscope; assay type: biochemical; conditions: 60 uM polypeptide, 20 uM G3BP1-GFP, pH7.5, 40s after addition
T2 construct: Genes of full-length mouse G3BP1, G3BP1-eGFP; thrombin protease cleavage site (C); His6 (C); made in house; host or cells: Escherichia coli rosetta (DE3)
Protocol: The prokaryotic expressed and purified G3BP1-GFP protein (pH7.5, 20 uM G3BP1-GFP) was induced to form phase separated droplets in vitro. Polypeptides Champ-E (RJK001), Champ-D (RJK002), Champ-K (RJK012) and Champ-Q (RJK005, […], SEQ ID NO: 34) (each of 60 uM) were added dropwise to the G3BP1-GFP droplets. The observation was performed continuously through a confocal laser microscope.
For G3BP1(FL)-eGFP, purified G3BP1(FL)-eGFP, Champ-E and its variants were changed were diluted to droplet buffer (50 mM Tris, pH 7.5, 150 mM NaCl) using SpinDesalt Column (smart). G3BP1(FL)-eGFP proteins were diluted to indicated concentrations and supplemented with PEG8000 with 1.25% final concentration for 10 min to induce phase separation as reported.

**Q.** With “TEPQEESEEEVEEPEERQQTPEVVPDDSGTFYDQTVSNDLE [RJK001, polypeptide with hydrophilic and hydrophobic segment, expressed in E. coli]” as the sequence, how does the “turbidity of G3BP1 (OD395 nm)” value [1] read?
**A.** Its value is “reduced the turbidity in a concentration dependent manner”.

**Q.** What about the “dissolving crystallin aggregation in lens lysates” value ([2]; lens lysates after phacoemulsification, RT 20 min) of the same sequence?
**A.** The value was “could effectively dissolve the crystallin aggregation from cataract patients”.

**Q.** And the “concentration relative to the concentration of Lanosterol required to achieve the same dissolving effect” value ([2]; lens lysates from cataract patients, Lanosterol as benchmark)?
**A.** The value was 1/100.

**Q.** What about the “dissolution of G3BP1-GFP phase separated droplets” value [3] of the same sequence?
**A.** The value was “significantly dissolved the phase separated droplets”.
